The values that follow are results of earlier work, collected in publication PMC5576036.

Data set [1] has as its target CD25 (IL-2Rα) (Homo sapiens) (UniProt P01589).
Data set [2] addresses CD122 (IL-2Rβ) (Homo sapiens) (UniProt P14784).
For data set [3], the target named is intermediate-affinity IL-2R (CD122/CD132) (Homo sapiens) (UniProt P14784).

Chain of UniProt P01589 (P01589 22-240): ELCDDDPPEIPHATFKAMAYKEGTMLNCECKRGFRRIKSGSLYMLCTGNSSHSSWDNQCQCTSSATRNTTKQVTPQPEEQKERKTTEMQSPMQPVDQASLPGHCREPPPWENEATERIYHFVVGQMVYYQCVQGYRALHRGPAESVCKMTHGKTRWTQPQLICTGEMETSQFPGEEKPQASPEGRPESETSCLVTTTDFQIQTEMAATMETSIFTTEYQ

Turning to IL-2 (from UniProt P60568), the Kd in data set [1] is 10 nM; in data set [2], 100 nM; in data set [3], 1 nM.
